Experimental data published in PMC11257990.
Where “and” joins values, the source holds several entries; their conditions need not be identical. Equal entries are not always repeated.

Target: CUL9 (endogenous, U2OS) (human (endogenous in U2OS)) (UniProt Q8IWT3)
Assay: sucrose gradient fractionation; 1 mg U2OS lysate on a continuous 5–40% sucrose gradient, 160,000g, 16 h, 4 °C; fractions immunoblotted for CUL9; purified hexameric CUL9–RBX1 and dimeric CUL9^(R125A Y152A)–RBX1 run for comparison
Conditions: remark: other sources report otherwise

CUL9 (endogenous, U2OS), Q8IWT3 1-2517
stoichiometry N: 6 and 2
